# Source: US20240383984A1 (Genentech, published 2024)
# T1: human FcRH3 (full-length, on SVT2 cells) (human, UniProt Q96P31 18-734)
# T1 construct: whole, on cells; also called SVT2-FcRH3
# T1 sequence (looked up): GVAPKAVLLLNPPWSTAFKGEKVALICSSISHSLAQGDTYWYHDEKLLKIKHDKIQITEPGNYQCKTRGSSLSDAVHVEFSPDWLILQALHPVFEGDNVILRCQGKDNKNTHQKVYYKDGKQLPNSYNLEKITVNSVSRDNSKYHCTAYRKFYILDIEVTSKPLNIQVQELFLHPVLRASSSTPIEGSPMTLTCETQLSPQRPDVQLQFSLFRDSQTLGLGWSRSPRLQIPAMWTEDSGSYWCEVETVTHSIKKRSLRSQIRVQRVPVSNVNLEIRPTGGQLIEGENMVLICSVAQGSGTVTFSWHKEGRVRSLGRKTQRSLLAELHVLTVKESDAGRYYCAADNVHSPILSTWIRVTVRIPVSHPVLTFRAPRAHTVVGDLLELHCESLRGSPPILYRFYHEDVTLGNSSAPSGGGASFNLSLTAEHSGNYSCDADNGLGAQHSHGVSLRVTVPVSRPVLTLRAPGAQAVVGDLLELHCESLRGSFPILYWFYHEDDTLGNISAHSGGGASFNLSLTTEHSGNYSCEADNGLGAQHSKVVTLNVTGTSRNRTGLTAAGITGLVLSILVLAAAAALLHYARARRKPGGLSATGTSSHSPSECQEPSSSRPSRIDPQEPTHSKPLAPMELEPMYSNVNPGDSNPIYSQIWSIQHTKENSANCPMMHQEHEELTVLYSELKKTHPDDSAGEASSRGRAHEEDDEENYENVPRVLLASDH
# T2: human FcRH5 (full-length, on cells) (human, UniProt Q96RD9 16-977)
# T2 construct: Transfected SVT2/293 cells or endogenous expression (MOLP-2, primary cells); also called SVT2-FcRH5; SVT2-huFcRH5
# T2 sequence: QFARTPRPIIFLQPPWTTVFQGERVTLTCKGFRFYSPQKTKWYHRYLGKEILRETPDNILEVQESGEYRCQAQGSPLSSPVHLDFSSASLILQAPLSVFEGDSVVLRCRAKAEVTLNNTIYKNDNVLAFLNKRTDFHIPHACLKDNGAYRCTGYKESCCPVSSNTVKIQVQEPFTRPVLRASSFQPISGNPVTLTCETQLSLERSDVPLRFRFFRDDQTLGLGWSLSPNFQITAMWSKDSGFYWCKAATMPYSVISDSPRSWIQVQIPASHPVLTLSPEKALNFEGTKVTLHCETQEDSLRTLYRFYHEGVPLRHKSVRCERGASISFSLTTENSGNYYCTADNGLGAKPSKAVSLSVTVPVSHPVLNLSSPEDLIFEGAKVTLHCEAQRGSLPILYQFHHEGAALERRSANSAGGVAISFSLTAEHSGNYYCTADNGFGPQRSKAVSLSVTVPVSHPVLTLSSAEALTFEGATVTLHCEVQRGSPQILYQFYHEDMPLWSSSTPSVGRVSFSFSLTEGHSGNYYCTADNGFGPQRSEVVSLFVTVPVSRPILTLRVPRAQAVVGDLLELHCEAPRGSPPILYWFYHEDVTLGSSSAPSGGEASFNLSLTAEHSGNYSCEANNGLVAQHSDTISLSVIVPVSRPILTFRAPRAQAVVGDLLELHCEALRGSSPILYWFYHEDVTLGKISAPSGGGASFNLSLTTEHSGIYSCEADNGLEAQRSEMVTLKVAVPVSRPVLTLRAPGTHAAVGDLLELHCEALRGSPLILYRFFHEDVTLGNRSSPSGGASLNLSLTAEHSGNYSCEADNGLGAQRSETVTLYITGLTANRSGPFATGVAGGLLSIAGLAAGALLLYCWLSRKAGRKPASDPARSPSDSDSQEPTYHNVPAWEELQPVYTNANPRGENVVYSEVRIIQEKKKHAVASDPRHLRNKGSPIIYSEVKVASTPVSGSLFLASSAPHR
# B1: 15G8 (antibody, mouse IgG2a, V domains shown)
# VH: EVQLQQSGPELVKPGASVKMSCKASGYTFTNYVIHWMKQKPGQGLEWIGYISPYNDYTKYNEKFEGKATLTSDKSSNTAYMELSSLTSEDSAVYYCARRDYYGSSDYWGQGTTLTVSS
# VL: QIVLTQSPAIMSASPGEKVTMTCSASSSVDYMHWYQQKSGTSPKKWIYDTSKLASGVPARFSGSGSGTSYSLTIGSMEAEDAATYYCQQWSSNPPTFGGGTKLEIK
# notes: mouse mAb, Campaign C; recombinant murine IgG2a for SPR; also called mAb 15G8
# B2: 17B1 (antibody, mouse IgG2a, V domains shown)
# VH: QVQLQQSGPELVRPGVSVKISCKGSGYTFTHYAMHWVKQSHTKSLEWIGMISSSSGNTNFNQKFMDKATMTVDKSSTTAYLELARLTFGDSAIYYCARWSYYALFDYWGQGTTVTVSS
# VL: ENVLTQSPAIMSASPGEKVTMTCSADSSVDYIHWYQQKSNTSPKLWIYDTSKLASGVPGRFSGSGSGNSYSLTISSMEAEDFATYYCFQGSGYPLTFGSGTKLELK
# notes: mouse mAb, Campaign C; recombinant murine IgG2a for SPR
# Experiments:
# [1] = target: T1, human FcRH3 (full-length, on SVT2 cells); assay: FACS, SVT2 cells
# [2] = target: T2, human FcRH5 (full-length, on cells); assay: FACS, SVT2 cells
Binder,binding result [1],binding result [2]
B1,no binding,binds
B2,no binding,binds
